Experimental data reported in patent publication US20260258153A1 (WISTAR INSTITUTE OF ANATOMY AND BIOLOGY, published 2026).

Target: carbonic anhydrase 9 (CA9) (UniProt Q16790 38-459)
Test: cell-based or functional assay

B1: BTE (canonical CA9 x CD3 bispecific T cell engager; G37_DBiTE, Non-HLV) (bispecific antibody)
chain: QSVLTQPPSVSGAPGQRVTISCTGSSSNIGAGYDVHWYQHLPGTAPKLLIYGNSNRPSGVPDRFSGSKSGTSASLAITGLQAEDETDYFCQSYDSSLSAWVFGGGTKVTVLGGGGSGGGGSGGGGSQVQLVQSGGGVVQPGGSLRLSCAASGFPFSSYAMSWVRQAPGKGLEWVSAISANGGTTYYADSVKGRFTISRDNSKNTLYLQMNSLRAEDTAVYYCANNGNYRGAFDIWGQGTMVTVSSGGGGSEVQLVESGGGLVQPGGSLRLSCAASGYSFTGYTMNWVRQAPGKGLEWVALINPYKGVSTYNQKFKDRFTISVDKSKNTAYLQMNSLRAEDTAVYYCARSGYYGDSDWYFDVWGQGTLVTVSSGGGGSGGGGSGGGGSDIQMTQSPSSLSASVGDRVTITCRASQDIRNYLNWYQQKPGKAPKLLIYYTSRLESGVPSRFSGSGSGTDYTLTISSLQPEDFATYYCQQGNTLPWTFGQGTKVEIKSSHHHHHH
EC50 (pM), cell line 293T-CA9: 13.2 pM
EC50 (pM), cell line 786-O: 82.5 pM
EC50 (pM), cell line A-498: 21.4 pM
EC50 (pM), cell line ACHN-CA9: 38.7 pM
EC50 (pM), cell line SKRC-52: 1.5 pM
